# Laboratory results as given in article PMC12872393 (Life Science Alliance, 2026).
# No end group written: not given here. AF488 = AF Dye 488 fluorescent label
# B1: dye-labeled ATG4B LIR peptide (EDEDFEILSL) (peptide)
# peptide: AF488-EDEDFEILSL
# notes: also called fluorescently labeled ATG4B peptide; labeled ATG4B peptide; source: synthetic peptide (MIT Biopolymers Laboratory, HPLC-purified)
# What was measured:
# [1] = biological target: T1, monomeric GATE16 (mGATE16) (UniProt P60520 1-117); assay: fluorescence polarisation; competition anisotropy: 1.5 μM mGATE16 with 10 nM labeled ATG4B peptide; increasing unlabeled peptide; 20 mM Tris, 150 mM NaCl, pH 7.5; RT; conditions: both partners purified
# T1 construct: GATE16, LC3/GABARAP-family protein, from pGex-4T-2_GATE-16 after thrombin cleavage; source: E. coli BL21 Tuner DE3, purified as GST-GATE16, GST removed with thrombin, SEC
# T1 sequence (P60520 whole entry): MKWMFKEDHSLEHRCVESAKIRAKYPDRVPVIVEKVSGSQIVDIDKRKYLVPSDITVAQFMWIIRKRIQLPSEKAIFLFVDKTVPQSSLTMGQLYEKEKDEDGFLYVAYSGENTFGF
# His6-GATE16 = biological target: T2, His6-GATE16 (UniProt P60520 1-117); assay: fluorescence polarisation; direct anisotropy: 10 nM labeled ATG4B peptide with increasing His6-GATE16; 20 mM Tris, 150 mM NaCl, pH 7.5; RT; apparent KD; conditions: both partners purified
# T2 construct: GATE16, LC3/GABARAP-family protein; also called monomeric His6-GATE16; His6-tagged GATE16; source: E. coli BL21 Tuner DE3, purified (Ni-NTA, SEC)
# T2 sequence (P60520 whole entry): as above
binder,measurement,setting,value
B1,binding result,[1],binds
same,binding result,His6-GATE16,binds
